# Results: PMC5629025 (2017)
# B1: FLAG-, HA-tagged wild-type Bag-1L [human] / androgen receptor, endogenous in LNCaP cells [human (endogenous in LNCaP)] (parent complex)
# chain 1: MAQRGGARRPRGDRERLGSRLRALRPGREPRQSEPPAQRGPPPSGRPPARSTASGHDRPTRGAAAGARRPRMKKKTRRRSTRSEELTRSEELTLSEEATWSEEATQSEEATQGEEMNRSQEVTRDEESTRSEEVTREEMAAAGLTVTVTHSNEKHDLHVTSQQGSSEPVVQDLAQVVEEVIGVPQSFQKLIFKGKSLKEMETPLSALGIQDGCRVMLIGKKNSPQEEVELKKLKHLEKSVEKIADQLEELNKELTGIQQGFLPKDLQAEALCKLDRRVKATIEQFMKILEEIDTLILPENFKDSRLKRKGLVKKVQAFLAECDTVEQNICQETERLQSTNFALAE
# chain 2: MEVQLGLGRVYPRPPSKTYRGAFQNLFQSVREVIQNPGPRHPEAASAAPPGASLLLLQQQQQQQQQQQQQQQQQQQQQQQETSPRQQQQQQGEDGSPQAHRRGPTGYLVLDEEQQPSQPQSALECHPERGCVPEPGAAVAASKGLPQQLPAPPDEDDSAAPSTLSLLGPTFPGLSSCSADLKDILSEASTMQLLQQQQQEAVSEGSSSGRAREASGAPTSSKDNYLGGTSTISDNAKELCKAVSVSMGLGVEALEHLSPGEQLRGDCMYAPLLGVPPAVRPTPCAPLAECKGSLLDDSAGKSTEDTAEYSPFKGGYTKGLEGESLGCSGSAAAGSSGTLELPSTLSLYKSGALDEAAAYQSRDYYNFPLALAGPPPPPPPPHPHARIKLENPLDYGSAWAAAAAQCRYGDLASLHGAGAAGPGSGSPSAAASSSWHTLFTAEEGQLYGPCGGGGGGGGGGGGGGGGGGGGGGGEAGAVAPYGYTRPPQGLAGQESDFTAPDVWYPGGMVSRVPYPSPTCVKSEMGPWMDSYSGPYGDMRLETARDHVLPIDYYFPPQKTCLICGDEASGCHYGALTCGSCKVFFKRAAEGKQKYLCASRNDCTIDKFRRKNCPSCRLRKCYEAGMTLGARKLKKLGNLKLQEEGEASSTTSPTEETTQKLTVSHIEGYECQPIFLNVLEAIEPGVVCAGHDNNQPDSFAALLSSLNELGERQLVHVVKWAKALPGFRNLHVDDQMAVIQYSWMGLMVFAMGWRSFTNVNSRMLYFAPDLVFNEYRMHKSRMYSQCVRMRHLSQEFGWLQITPQEFLCMKALLLFSIIPVDGLKNQKFFDELRMNYIKELDRIIACKRKNPTSCSRRFYQLTKLLDSVQPIARELHQFTFDLLIKSHMVSVDFPEMMAEIISVQVPKILSGKVKPIYFHTQ
# Variants of: B1
# Assay: SILAC RIME; LNCaP cells stably expressing FLAG-HA-tagged wild-type or CMut Bag-1L; parent: 21; read off a plot
row,response,Variant
1,~19 log2 intensity,"chain 1 MAQRGGARRPRGDRERLGSRLRALRPGREPRQSEPPAQRGPPPSGRPPARSTASGHDRPTRGAAAGARRPRMKKKTRRRSTRSEELTRSEELTLSEEATWSEEATQSEEATQGEEMNRSQEVTRDEESTRSEEVTREEMAAAGLTVTVTHSNEKHDLHVTSQQGSSEPVVQDLAQVVEEVIGVPQSFQKLIFKGKSLKEMETPLSALGIQDGCRVMLIGKKNSPQEEVELAALKHLEKSVEKIADQLEELNKELTGIQQGFLPKDLQAEALCKLDRRVAATIEQFMKILEEIDTLILPENFKDSRLKRKGLVKKVQAFLAECDTVEQNICQETERLQSTNFALAE [chain 1 K231A, chain 1 K232A, chain 1 K279A]"
